Measured values as given in patent US12404345B2, “Humanized antibodies against iRHOM2” (SCIRHOM GMBH, priority 2021, dated 2025).

T1: human iRhom2 (Homo sapiens, UniProt Q6PJF5)
T1 construct: MEF-DKO-hiR2-FL-WT-T7 cells stably expressing human iRhom2 full length wild type; expressed in transfected cells; host or cells: immortalized iRhom1/2-/- double knockout mouse embryonic fibroblasts, pMSCV retroviral infection
T1 sequence (Q6PJF5 1-856): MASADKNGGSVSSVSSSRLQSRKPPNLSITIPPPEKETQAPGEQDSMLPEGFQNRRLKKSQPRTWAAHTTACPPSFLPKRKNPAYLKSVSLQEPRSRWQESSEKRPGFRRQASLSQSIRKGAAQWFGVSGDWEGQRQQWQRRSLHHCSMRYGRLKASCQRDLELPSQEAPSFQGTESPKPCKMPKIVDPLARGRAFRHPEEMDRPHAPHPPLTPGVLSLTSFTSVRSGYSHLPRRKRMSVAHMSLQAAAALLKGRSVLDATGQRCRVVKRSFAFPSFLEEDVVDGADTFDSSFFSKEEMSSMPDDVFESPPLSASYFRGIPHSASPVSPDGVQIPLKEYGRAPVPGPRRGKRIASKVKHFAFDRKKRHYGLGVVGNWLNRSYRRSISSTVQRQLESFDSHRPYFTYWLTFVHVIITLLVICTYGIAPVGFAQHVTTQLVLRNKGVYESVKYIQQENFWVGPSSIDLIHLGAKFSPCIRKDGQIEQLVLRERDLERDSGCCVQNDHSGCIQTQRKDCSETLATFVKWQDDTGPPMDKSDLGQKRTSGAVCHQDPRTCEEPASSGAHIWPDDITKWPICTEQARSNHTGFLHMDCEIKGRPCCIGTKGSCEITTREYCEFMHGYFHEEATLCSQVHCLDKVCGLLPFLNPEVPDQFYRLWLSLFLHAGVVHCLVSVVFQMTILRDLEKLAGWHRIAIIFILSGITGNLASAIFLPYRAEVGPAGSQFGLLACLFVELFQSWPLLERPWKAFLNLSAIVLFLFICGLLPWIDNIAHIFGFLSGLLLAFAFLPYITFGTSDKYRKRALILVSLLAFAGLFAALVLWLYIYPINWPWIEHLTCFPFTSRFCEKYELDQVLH


molecular target: T1, human iRhom2; experiment: Affinity determination by indirect FACS scatchard analysis on L929-2041-hiR2-FL-WT-T7 cells; type: binding; conditions: 22 two-fold dilutions starting at 160 μg/ml, on ice 1 hour
Procedure: In this study, affinity measurements of the humanized antibodies 16-B-03, 16-B-05, 16-B-07, 23-B-04, 42-B-02 and 42-B-04 of the invention were performed by indirect FACS scatchard analysis on […] cells, a murine cell line expressing human iRhom2.
The resulting L929 mouse iRhom2 knock-out cell line was afterwards infected with different human iRhom2 constructs to obtain cell line derivatives, stably expressing different human iRhom2 proteins, that allow for binding analyses to different iRhom2 variants in the same genetic background.
In brief, mRhbdf2.3 IVT gRNA ([…]) was synthesized at Thermo Fisher Scientific GeneArt GmbH, Regensburg, Germany. One day post seeding in 24 well plates, L929 parental cells were transfected according to GeneArt CRISPR Nuclease mRNA user guide (Thermo Fisher Scientific, USA) with the gRNA/GeneArt Platinium Cas9 Nucelase (Thermo Fisher Scientific, USA) mix using Lipofectamine CRISPRMAX Transfection Reagent (Thermo Fisher Scientific, USA). 3 days post transfection, cells were lysed and DNA was extracted for amplification of specific PCR products using the mRhbdf2.3 fwd ([…])/mRhbdf2.3 rev ([…]) 5primer pair (Thermo Fisher Scientific, USA). […] Cleavage assay PCR products were also analyzed on Invitrogen 2% E-Gel Size Select agarose gels. Two rounds of subsequent sub cloning of the identified polyclonal L929 population using limited dilution technique were performed, using the Cleavage Detection Kit for identification of positive sub clones. Thereby, the most promising positive sub clone identified in the first round, named 1029, was further sub cloned in the second round to obtain the final clone, named 2041. The monoclonal cell population derived from this sub clone is named L929-2041 and was used for subsequent infection (according to the procedure described in Example 3) with the human iRhom2 construct hiR2-FL-WT-T7 for the generation of the cell lines L929-2041-hiR2-FL-WT-T7.
In brief, L929-2041-hiR2-FL-T7 were harvested with 10 mM EDTA in PBS, washed and resuspended in FACS buffer (PBS, 3% FBS, 0.05% sodium azide), and seeded in Nunc U-bottom 96-well plates (Thermo Fisher Scientific, USA) at approximately 3×10^5 cells per well. In order to pellet cells and remove supernatants, the plates were centrifuged at 1,500 rpm and 4° C. for 3 minutes. For primary staining, cells were resuspended in 100 μl per well of either FACS buffer alone (controls) or serial two-fold dilutions (in total 22 concentrations) of the humanized antibodies 16-B-03, 16-B-05, 16-B-07, 23-B-04, 42-B-02 and 42-B-04 of the invention in FACS buffer starting at 160 μg/ml and incubated on ice for 1 hour. Afterwards, plates were centrifuged at 1,500 rpm and 4° C. for 3 minutes and washed twice with 200 μl per well of FACS buffer. For secondary staining, cells were spun down and resuspended in 100 μl per well of PE-conjugated goat anti-human IgG F(ab′)2 detection fragment (Dianova, Germany) diluted 1:100 in FACS buffer. Protected from light, the cell suspensions were incubated on ice for 1 hour. Plates were then centrifuged at 1,500 rpm and 4° C. for 3 minutes and washed three times with 200 μl per well of FACS buffer. Finally, cells were resuspended in 150 μl per well of FACS buffer and analyzed using a BD Accuri™ C6 Plus flow cytometer (Becton Dickinson, Germany). Applying Prism8 software (GraphPad Software, USA), the respective KD value for each of the antibodies of the invention were calculated.

Molecule | KD values for binding to L929-2041-hiR2-FL-T7 cells
23-B-04: humanized antibody binding human iRhom2; HCVD SEQ ID NO 25, LCVD SEQ ID NO 29 (antibody, V domains shown, antibody sequences) VH: QVTLRESGPALVKPTQTLTLTCTFSGFSLSTFGMGVGWIRQPPGKALEWLAHIWWDDEKYYNSALKSRLTISKDTSKNQVVLTITNMDPVDTATYYCARISNYGSNYWYFNVWGQGTLVTVSS VL: AIQLTQSPSSLSASVGDRVTITCRASSSVSYMYWYQQKPGKAPKVLIYDTSNLASGVPSRFSGSGSGTDYTLTISSLQPEDFATYYCQQWNAYPLTFGQGTKLEIK | subnanomolar to low nanomolar range
42-B-04: humanized antibody binding human iRhom2; HCVD SEQ ID NO 41, LCVD SEQ ID NO 45 (antibody, V domains shown, antibody sequences) VH: QVTLRESGPALVKPTQTLTLTCTFSGFSLSTFGRGVGWIRQPPGKALEWLAHIWWDDEKYYNSALKSRLTISKDTSKNQVVLTITNMDPVDTATYYCARIQNYGSNYWYFDVWGQGTLVTVSS VL: AIQLTQSPSSLSASVGDRVTITCRASSRISYMFWYQQKPGKAPKVLIYDTSNLASGVPSRFSGSGSGTDYTLTISSLQPEDFATYYCQQWNAYPLTFGQGTKLEIK | subnanomolar to low nanomolar range
42-B-02: humanized antibody binding human iRhom2; HCVD SEQ ID NO 33, LCVD SEQ ID NO 37 (antibody, V domains shown, antibody sequences) VH: QVTLRESGPALVKPTQTLTLTCTFSGFSLSTFGRGVGWIRQPPGKALEWLAHIWWDDEKYYNSALKSRLTISKDTSKNQVVLTITNMDPVDTATYYCARIQNYGSNYWYFDVWGQGTLVTVSS VL: AIQLTQSPSSLSASVGDRVTITCRASSRISYMFWYQQKPGKAPKVLIYDTSNLASGVPSRFSGSGSGTDYTLTISSLQPEDFATYYCQQWNSYPLTFGQGTKLEIK | subnanomolar to low nanomolar range
16-B-03: humanized antibody binding human iRhom2; HCVD SEQ ID NO 1, LCVD SEQ ID NO 5 (antibody, V domains shown, antibody sequences) VH: QVTLRESGPALVKPTQTLTLTCTFSGFSLSTFALGVGWIRQPPGKALEWLAHIWWDDDKYYNPALKSRLTISKDTSKNQVVLTITNMDPVDTATYYCARITTYYYGMDYWGQGTLVTVSS VL: EIVMTQSPDFQSVTPKEKVTITCRASQSIGNHLHWYQQKPDASPKLLIKYASQSISGVPSRFSGSGSGTDFTLTINSLEAEDAATYFCQQSYQWPLTFGQGTKLEIK | subnanomolar to low nanomolar range
16-B-05: humanized antibody binding human iRhom2; HCVD SEQ ID NO 9, LCVD SEQ ID NO 13 (antibody, V domains shown, antibody sequences) VH: QVTLRESGPALVKPTQTLTLTCTFSGFSLSTFALGVGWIRQPPGKALEWLAHIWWDEDKYYNPALKSRLTISKDTSKNQVVLTITNMDPVDTATYYCARITTYYYGMDYWGQGTLVTVSS VL: EIVMTQSPDFQSVTPKEKVTITCRASQSIGNHLHWYQQKPDASPKLLIKYASQSISGVPSRFSGSGSGTDFTLTINSLEAEDAATYFCQQSYNWPLTFGQGTKLEIK | subnanomolar to low nanomolar range
16-B-07: humanized antibody binding human iRhom2; HCVD SEQ ID NO 17, LCVD SEQ ID NO 21 (antibody, V domains shown, antibody sequences) VH: QVTLRESGPALVKPTQTLTLTCTFSGFSLSTFALGVGWIRQPPGKALEWLAHIWWDEDKYYNPALKSRLTISKDTSKNQVVLTITNMDPVDTATYYCARITTYYYGMDYWGQGTLVTVSS VL: EIVMTQSPDFQSVTPKEKVTITCRASQSIGNHLHWYQQKPDASPKLLIKYASQSISGVPSRFSGSGSGTDFTLTINSLEAEDAATYFCQQSYQWPLTFGQGTKLEIK | subnanomolar to low nanomolar range
